Data reported in US20260242467A1.

Molecular target: NKG2A (human) (UniProt P26715)
Experiment: flow cytometry on primary NK cells, 0 µM mabkine control of the competition assay

Sequence of UniProt P26715 (P26715 whole entry): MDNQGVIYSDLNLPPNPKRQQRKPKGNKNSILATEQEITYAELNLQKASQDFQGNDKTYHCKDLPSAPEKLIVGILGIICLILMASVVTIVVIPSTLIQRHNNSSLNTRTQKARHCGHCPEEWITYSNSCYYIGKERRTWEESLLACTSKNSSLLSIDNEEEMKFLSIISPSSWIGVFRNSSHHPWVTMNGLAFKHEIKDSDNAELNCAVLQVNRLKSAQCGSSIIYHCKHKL

anti-NKG2A (S19004C) from Biolegend (antibody)
% of CD56+ cells stained (without mabkine): 26.5%
